# Data as given in patent US6897049B1, “Proteins producing an altered immunogenic response and methods of making and using the same” (Genencor International, Inc., priority 1998, dated 2005).
# Legend:
# Hartley guinea pigs = experiment: Guinea pig model of immunogenicity, antigen-specific IgG titers by direct ELISA; format: in vivo
# Method: Guinea pig immunizations: Adult female Hartley guinea pigs were immunized with various doses of B. amyloliquefaciens subtilisin and GP002. The doses were 1, 5, 10, and 20 μg/dose. There were four animals for each dose. Animals were immunized subcutaneously with enzyme in Complete Freund's Adjuvant for the first immunization. All subsequent immunizations were performed in Incomplete Freund's adjuvant. Animals were immunized, and a serum sample taken, every two weeks.
# ELISA: A direct ELISA was performed. Costart EIA plates were coated with 10 μg/ml of the immunizing enzyme in PBS overnight at 4° C. Plates were washed and blocked with 1% BSA in PBS. Serum samples were diluted in 1% BSA/PBS, and incubated on the enzymes coated plates for 1 hour. Serum samples were washed out, and biotinylated anti-guinea pig IgG was added at a 1:10,000 dilution in 1% BSA/PBS. The secondary reagent was incubated for 1 hour. The wells were washed, and avidin conjugated horse radish peroxidase was added to the wells at a 1:1000 dilution in 1% BSA/PBS. After 30 minutes, the substrate (ABTS) was added and the OD405 was read after 30 minutes.
# Calculation of titers: Background was subtracted from the OD readings, and the results plotted for each individual guinea pig. […] The titer value was calculated from the linear regression equation for an OD=0.5. […]
# guinea pig splenocytes = experiment: T cell epitope mapping with splenocytes of immunized guinea pigs (thymidine incorporation); format: cell-based; details: guinea pigs immunized with 20 μg subtilisin; 15-mer peptides at 5 μM; >10 animals
# Method: B. lentis and B. amyloliquefaciens subtilisin T cell epitope mapping: Guinea pigs were immunized with 20 μg/immunization of subtilisin from either B. lentis or B. amyloliquefaciens. Animals were immunized subcutaneously in adjuvant every two weeks for 10 to 12 weeks. A single cell suspension of guinea pig splenocytes was created from each animal's spleen. Cells were plated at 5×10^5 splenocytes per well in round bottom 96 well plates. 15-mer peptides off-set by 3 amino acids were synthesized by Mimotopes. Peptides were resuspended to 1 mM in DMSO. Peptides were added to the cells at a final concentration of 5 μM. Cultures were incubated for 5 days at 37°, 5% CO2. Wells were pulsed with 0.5 μCi tritiated thymidine, and allowed to incubate for an additional 18 hours. Wells were harvested, and thymidine incorporation assessed.
# [1] = system: HLA DR3/DQ2 transgenic mice; experiment: Immunization of HLA-DR3/DQ2/C2D transgenic mice, antigen-specific IgG by direct ELISA; format: in vivo; details: 2 x 50 μg i.p.
# Method: Adult male HLA-DR31DQ2/C2D mice were immunized with 50 μg of FNA or FNA Variant emulsified in Complete Freund's Adjuvant. The immunization was administered intraperitoneally. Two weeks later, the mice received another intraperitoneal immunization of 50 μg FNA or the Variant emulsified in Incomplete Freund's Adjuvant. One week later, the mice were bled via the retro-orbital route, and the serum collected. Serum was assessed for antigen-specific IgG antibodies in a direct ELISA protocol. Briefly, 96 well flat-bottomed EIA plates were coated overnight with 10 μg/ml of denatured FNA. Plates were washed, blocked with 1% Fetal Calf Serum, and serum was titered out at 1:10 dilutions. The serum was washed out of the wells, and antigen-specific IgG was detected with horse radish peroxidase conjugated anti-mouse IgG. Results are presented as serum dilution versus average optical density (×1000) in Table 1 and FIG. 21.
# naïve human CD4+ T-cells = experiment: T-cell proliferation assay with differentiated dendritic cells and naïve human CD4+ T-cells (tritium incorporation); format: cell-based; details: using the methods herein
# Method: Fresh human peripheral blood cells were collected from “naïve” humans, i.e., persons not known to be exposed to or sensitized to Bacillus lentus protease, for determination of antigenic epitopes in protease from Bacillus lentus and human subtilisin. Naïve humans is intended to mean that the individual is not known to have been exposed to or developed a reaction to protease in the past. Peripheral mononuclear blood cells (stored at room temperature, no older than 24 hours) were prepared for use as follows: Approximately 30 mls of a solution of buffy coat preparation from one unit of whole blood was brought to 50 ml with Dulbecco's phosphate buffered solution (DPBS) and split into two tubes. […] The cell density of the resultant solution was measured by hemocytometer. Viability was measured by trypan blue exclusion.
# From the resulting solution, a differentiated dendritic cell culture was prepared from the peripheral blood mononuclear cell sample having a density of 10^8 cells per 75 ml culture flask in a solution as follows: • (1) 50 ml of serum free AIM V media (Gibco) was supplemented with a 1:100 dilution beta-mercaptoethanol (Gibco). […] Adherent and non-adherent cells were then centrifuged at 600 G for 5 minutes, washed in DPBS and counted. • (4) The prepared dendritic cells were placed into a 96 well round bottom array at 2×10^4/well in 100 microliter total volume of AIM V media. […]
molecule,measurement,setting,value
"Bacillus amyloliquefaciens subtilisin: Bacillus amyloliquefaciens subtilisin (BPN′), SEQ ID NO: 3 (protein) AQSVPYGVSQIKAPALHSQGYTGSNVKVAVIDSGIDSSHPDLKVAGGASMVPSETNPFQDNNSHGTHVAGTVAALNNSIGVLGVAPSASLYAVKVLGADGSGQYSWIINGIEWAIANNMDVINMSLGGPSGSAALKAAVDKAVASGVVVVAAAGNEGTSGSSSTVGYPGKYPSVIAVGAVDSSNQRASFSSVGPELDVMAPGVSIQSTLPGNKYGAYNGTSMASPHVAGAAALILSKHPNWTNTQVRSSLENTTTKLGDSFYYGKGLINVQAAAQ",immunogenicity in Hartley strain guinea pigs,Hartley guinea pigs,comparatively non-immunogenic
same,T cell epitopes found,guinea pig splenocytes,none
"FNA: BPN′ with a Y217L substitution; precursor of the variant (protein, UniProt P00782 108-382, looked up, variant Y217L) Subtilisin BPN': AQSVPYGVSQIKAPALHSQGYTGSNVKVAVIDSGIDSSHPDLKVAGGASMVPSETNPFQDNNSHGTHVAGTVAALNNSIGVLGVAPSASLYAVKVLGADGSGQYSWIINGIEWAIANNMDVINMSLGGPSGSAALKAAVDKAVASGVVVVAAAGNEGTSGSSSTVGYPGKYPSVIAVGAVDSSNQRASFSSVGPELDVMAPGVSIQSTLPGNKYGALNGTSMASPHVAGAAALILSKHPNWTNTQVRSSLENTTTKLGDSFYYGKGLINVQAAAQ","average optical density (×1000), antigen-specific IgG",[1]; serum dilution 10,2937.5
same,"average optical density (×1000), antigen-specific IgG",[1]; serum dilution 100,2476
same,"average optical density (×1000), antigen-specific IgG",[1]; serum dilution 1000,1695
same,"average optical density (×1000), antigen-specific IgG",[1]; serum dilution 10000,641.5
same,"average optical density (×1000), antigen-specific IgG",[1]; serum dilution 100000,207
same,"average optical density (×1000), antigen-specific IgG",[1]; serum dilution 1000000,129.5
same,"average optical density (×1000), antigen-specific IgG",[1]; serum dilution 10000000,88.5
"B. lentis subtilisin: subtilisin protease from Bacillus lentus (GG36), SEQ ID NO: 6 (protein) AQSVPWGISRVQAPAAHNRGLTGSGVKVAVLDTGISTHPDLNIRGGASFVPGEPSTQDGNGHGTHVAGTIAALNNSIGVLGVAPSAELYAVKVLGASGSGSVSSIAQGLEWAGNNGMHVANLSLGSPSPSATLEQAVNSATSRGVLVVAASGNSGAGSISYPARYANAMAVGATDQNNNRASFSQYGAGLDIVAPGVNVQSTYPGSTYASLNGTSMATPHVAGAAALVKQKNPSWSNVQIRNHLKNTATSLGSTNLYGSGLVNAEAATR",immunogenicity in Hartley strain guinea pigs,Hartley guinea pigs,highly immunogenic
same,T cell epitopes found,guinea pig splenocytes,Two
"proteinase K: Proteinase K from Tritirachium Album limber (protein, UniProt P06873 106-384, looked up) Proteinase K: AAQTNAPWGLARISSTSPGTSTYYYDESAGQGSCVYVIDTGIEASHPEFEGRAQMVKTYYYSSRDGNGHGTHCAGTVGSRTYGVAKKTQLFGVKVLDDNGSGQYSTIIAGMDFVASDKNNRNCPKGVVASLSLGGGYSSSVNSAAARLQSSGVMVAVAAGNNNADARNYSPASEPSVCTVGASDRYDRRSSFSNYGSVLDIFGPGTSILSTWIGGSTRSISGTSMATPHVAGLAAYLMTLGKTTAASACRYIADTANKGDLSNIPFGTVNLLAYNNYQA",immunogenic response compared with other commercially available proteases,naïve human CD4+ T-cells,lower immunogenic response
